Patent publication US20130101592A1 (LYKERA BIOMED, published 2013)

Experiments:
[1] = target: recombinant human S100A6 (Abnova) (human, UniProt P06703 1-90); experiment: ELISA on purified protein; legend: - no reaction
recombinant human S100A7 = target: T1, recombinant human S100A7 (human, UniProt P31151 1-101); experiment: ELISA on purified protein; legend: - no reaction
T1 sequence (looked up): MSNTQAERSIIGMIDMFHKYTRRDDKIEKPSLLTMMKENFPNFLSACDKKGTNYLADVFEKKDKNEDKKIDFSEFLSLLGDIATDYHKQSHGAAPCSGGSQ

[2] = target: recombinant human S100A2 (Abnova) (human, UniProt P29034 1-98); experiment: ELISA on purified protein; legend: - no reaction
[3] = target: T2, recombinant human S100A1 (Abnova) (human, UniProt P23297 1-94); experiment: ELISA on purified protein; legend: - no reaction
T2 sequence (looked up): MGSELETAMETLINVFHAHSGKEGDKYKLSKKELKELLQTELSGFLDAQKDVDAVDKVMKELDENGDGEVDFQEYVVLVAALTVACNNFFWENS

[4] = target: T3, recombinant murine S100A4 (murine, UniProt P07091 1-101); experiment: ELISA on purified protein; legend: ++++ positive reaction
T3 construct: also called Mouse S100A4
T3 sequence (P07091 whole entry, one chain of several): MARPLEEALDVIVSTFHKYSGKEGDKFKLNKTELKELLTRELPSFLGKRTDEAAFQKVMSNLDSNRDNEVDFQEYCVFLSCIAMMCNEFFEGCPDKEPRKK

Sequence of recombinant human S100A2 (Abnova) (P29034 whole entry, one chain of several): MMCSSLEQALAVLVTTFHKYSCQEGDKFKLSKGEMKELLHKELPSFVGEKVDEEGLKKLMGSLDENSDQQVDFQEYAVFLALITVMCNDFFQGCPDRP

B1: monoclonal antibody 5C3 (hybridoma 5C3-1B8-1F4, ECACC 10022401) (antibody, IgG1, V domains shown)
VH: EAQLQQSGAELVKPGASVKLSCTASGFNIQETYMHWVKQRPEQGLEWIGRIDPANGNTKDDPKFQGKASITVDTSSNTAYLQLSSLTSEDTAVYYCASSYAMDYWGQGTSVTVSS
VL: DVLMTQTPLSLPVSLGDQASISCRSSQSIVHSNGNTYLEWYLQKTGQSPELLIYKVSNRLSGVPDRFSGSGSGTDFTLKISRVEAEDLGVYYCFQGSHVPFTFGSGTKLEIK
notes: constant regions are not; also called monoclonal mouse anti-human S100A4 5C3
binding result [1]: no binding
binding result (recombinant human S100A7): no binding
binding result [2]: no binding
binding result [3]: no binding
binding result [4]: binds
